For this series the following is noted: phosphorylation at S486.

Regarding “SGK3: AZD8055 (mTOR catalytic inhibitor, 0.1 uM, 1 h)”, the enzymatic_activity entry was “decreases”.

(Values after publication PMC5007552.)
